Test results taken from patent US20070212357A1 (published 2007).
Numbering of substitutions follows the chain as printed. Each block holds one molecule with its values, some of them ahead of it.

How the values were obtained:
[1] = molecular target: T1, human NGF (human, UniProt P01138 122-241); assay: SPR (BIAcore), Fab over CM5 chip with 100 RU of immobilized human NGF
T1 construct: also called hNGF; human nerve growth factor

[2] = molecular target: T1, human NGF; assay: cell-based or functional assay
[3] = molecular target: rat NGF (rat) (UniProt P25427); assay: cell-based or functional assay
Sequence of rat NGF (rat) (P25427 122-241 limits assumed): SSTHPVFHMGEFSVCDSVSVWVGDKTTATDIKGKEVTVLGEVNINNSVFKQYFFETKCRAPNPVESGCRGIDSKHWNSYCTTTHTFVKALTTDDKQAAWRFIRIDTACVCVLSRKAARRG

[4] = molecular target: T1, human NGF; assay: SPR (BIAcore), Fab over immobilized human NGF
[5] = molecular target: T1, human NGF; assay: SPR (BIAcore), Fab over immobilized human NGF; remark: listed apart in the source
[6] = molecular target: T1, human NGF; assay: SPR (BIAcore), human NGF on chip; KD calculated using kon 4e4 M-1s-1
[7] = molecular target: T1, human NGF; assay: SPR (BIAcore) screening, human NGF on chip; KD calculated using kon 4e4 M-1s-1
Procedure: Affinities of anti-NGF Fabs and monoclonal antibodies were determined using the BIAcore3000™ surface plasmon resonance (SPR) system (BIAcore, INC, Piscaway N.J.). CM5 chips were activated with N-ethyl-N′-(3-dimethylaminopropyl)-carbodiinide hydrochloride (EDC) and N-hydroxysuccinimide (NHS) according to the supplier's instructions. Human NGF was diluted into 10 mM sodium acetate pH 4.0 and injected over the activated chip at a concentration of 0.005 mg/mL. Using variable flow time across the individual chip channels, two ranges of antigen density were achieved: 100-200 response units (RU) for detailed kinetic studies and 500-600 RU for screening assays. The chip was blocked with ethanolamine. […] HBS-EP buffer (0.01M HEPES, pH 7.4, 0.15 NaCl, 3 mM EDTA, 0.005% Surfactant […]) was used as running buffer for all the BIAcore assays.

T1 sequence (P01138 122-241 limits assumed): as the sequence (P25427 122-241 limits assumed) above, with T3S, V6I, M9R, T37M, A60D, E65D, T92M, D94G, A117V, G120A counted along it

koff [1]: 8.4e-05 s⁻¹
Kd [4]: 10 nM
Kd [5]: 3.7 nM
koff [5]: 9e-05 s⁻¹
kon [5]: 22000 M⁻¹ s⁻¹
Molecule: mouse antibody 911 (Fab)
IC50 (in the presence of 1.5 pM NGF), human NGF-dependent survival of mouse E13.5 trigeminal neurons [2]: 63.5 pM
IC50 (in the presence of 15 pM NGF), human NGF-dependent survival of mouse E13.5 trigeminal neurons [2]: 322 pM
IC50 (1.5 pM NGF), rat NGF-dependent survival of mouse E13.5 trigeminal neurons [3]: 34.6 pM
IC50 (15 pM NGF), rat NGF-dependent survival of mouse E13.5 trigeminal neurons [3]: 161 pM

Kd [6]: 3.5 nM
B1: H19-L129 (Fab, V domains shown)
VH: QVQLQESGPGLVKPSETLSLTCTVSGFSLIGYDLNWIRQPPGKGLEWIGIIWGDGTTDYNSAVKSRVTISKDTSKNQFSLKLSSVTAADTAVYYCARGGYYYGTSYYFDYWGQGTLVTVS
VL: DIQMTQSPSSLSASVGDRVTITCRASQSISNNLNWYQQKPGKAPKLLIYYTSRFHSGVPSRFSGSGSGTDFTFTISSLQPEDIATYYCQQSKTLPYTFGQGTKLEIKR
notes: Combined clone with matured CDRs H1, H2, L1, L2 and grafted H3 and L3; Fab; human Ck, human IgG2a CH1, his tag; also called H19-L129 Fab; Fab H19-L129

Kd [7]: 25 nM
B2: L_S91E; L_K92R; H_Y101W; H_G103A (8L2-6D5 template) (Fab, V domains shown)
VH: B1 VH with L34I, I50M, V63L, Y101W, G103A
VL: B1 VL with S28D, N32H, T51I, S91E, K92R
notes: Human Ck, human IgG2a CH1, his tag
